Values of other authors as cited in US20210338656A1, “IMMUNOSTIMULATORY AGENTS IN COMBINATION WITH ANGIOGENESIS INHIBITORS” (Alkermes Pharma Ireland Limited, priority 2020, published 2021).

Test system: CD8+ T cells, NK cells, Tregs
Conditions: human patients; cited from earlier work

B1: fusion protein of SEQ ID NO: 1: circularly permuted (cp) IL-2 variant fused to the extracellular domain of the IL-2Rα portion of the IL-2 receptor (protein)
chain: SKNFHLRPRDLISNINVIVLELKGSETTFMCEYADETATIVEFLNRWITFSQSIISTLTGGSSSTKKTQLQLEHLLLDLQMILNGINNYKNPKLTRMLTFKFYMPKKATELKHLQCLEEELKPLEEVLNLAQGSGGGSELCDDDPPEIPHATFKAMAYKEGTMLNCECKRGFRRIKSGSLYMLCTGNSSHSSWDNQCQCTSSATRNTTKQVTPQPEEQKERKTTEMQSPMQPVDQASLPGHCREPPPWENEATERIYHFVVGQMVYYQCVQGYRALHRGPAESVCKMTHGKTRWTQPQLICTG
modifications: Human cpIL-2IL-2R-alpha
notes: circularly permuted (cp) IL-2 variant fused to the extracellular domain of the IL-2Rα portion of the IL-2 receptor
In the case of B1, the “activation of T regs” value is given as “absence of dose dependent activation”, the “expansion of CD8+ T cells and NK cells” value is given as “in a dose dependent manner” and the “relative expansion of immunosuppressive Tregs as compared to high dose rhIL-2” value is given as “at least two fold less”.
